The source of these data is the RNAGym collection of RNA variant scans (doi:10.1073/pnas.2313332121).

First the molecules themselves.
B1: TPR t1 (parent)
chain: GACCAAUCUGCCCUCAGAGCUCGAGAACAUCUUCGGAUGCAGAGGAGGCAGGCUUCGGUGGCGCGAUAGCGCCAACGUCCUCAACCUCCAAUGCAUCCCACCACAUGAUGAUGCCUGAAGAGCCUUGGUUUUUUG

The data set covers variants of B1. The experiment in a line: polymerase ribozyme fitness, log enrichment relative to wild type (log ratio); higher = more active; in vitro selection for triplet polymerase activity. The method in brief:
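In triplicate, a single round of in vitro selection was run on each mutant library, PCR-built and transcribed, covering one subunit of a heterodimeric triplet polymerase ribozyme. Frozen incubation at −7 °C followed annealing with a biotinylated primer, partner subunit and triplets, and extended constructs were then gel-excised, streptavidin-captured and taken through RT-PCR. Fitness is the logarithm of genotype enrichment over wild-type enrichment, from inverse-variance-weighted replicate averages of Illumina-sequenced inputs and outputs. […] only genotypes with ≥10 input reads and ≥1 read per output were kept.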
Regarding C62U C73U U112G, the “polymerase ribozyme fitness (log ratio)” value is 0.712.
Under C79G A90C U112A stands -3.88.
Under C3U C40U U78C G113A G120A C123A stands -2.82.
Turning to A5G C49U C70U C72U A121U U133G, the “polymerase ribozyme fitness (log ratio)” value worked out at 0.312.
For C56G C72G the value was -2.27.
Under C40U C56A stands -0.555; under C8A C104A G120A, 1.08; under U59A G61U G117U, -2.27.
Consider A24G A46C A111C U130G, for which the “polymerase ribozyme fitness (log ratio)” value is -3.43.
Under G47A stands -0.989.
With A5U U14A C53U U112A, the “polymerase ribozyme fitness (log ratio)” value is 0.0341.
Under C3A A46C C53A C72U stands -1.88; under A18G U129A, -4.53; under C56A C64A G93A C104A U109G A111C, -5.87.
Take G45U C53U G61A A105U: the “polymerase ribozyme fitness (log ratio)” value was -2.59.
C12G U32A: the “polymerase ribozyme fitness (log ratio)” value was -3.25.
For the variant C72U C88U U131C U133A, the “polymerase ribozyme fitness (log ratio)” value was -0.924.
In the case of C20G C64A C98U A105C C114U U116A, the “polymerase ribozyme fitness (log ratio)” value was -6.79.
For G35U G117A the value was -5.15; for C28A C73A C94A A119U, -5.2.
With C28G G63A, the “polymerase ribozyme fitness (log ratio)” value is -4.42.
Under C3A C8U U59A U87G stands -1.65.
Turning to A16G G39A C114U, the “polymerase ribozyme fitness (log ratio)” value is -4.17.
For C82G C86A the value was -0.475.
For C40U C62U C85G the value was -2.44; for G61U C97G G122U, -3.87.
Take U7A C62G G117U: the “polymerase ribozyme fitness (log ratio)” value is -5.82.
For the variant C28G G63C U129A, the “polymerase ribozyme fitness (log ratio)” value is -4.76.
Under C22A C31G C62U C94A G110C stands -6.66; under G42U C56A C64U, -2.46.
Under A18U C56U U87G U106C A121C stands -0.72; under C12U G52A C86U C97A, -4.13.
Take U78C A118G: the “polymerase ribozyme fitness (log ratio)” value is -0.499.
Consider G69A C72U A111C U131A, for which the “polymerase ribozyme fitness (log ratio)” value was -3.01.
Under G58A G117A G120A U132C stands -3.08; under C49U U106A, -0.703.
For G61A C76U C97U, the “polymerase ribozyme fitness (log ratio)” value was -4.24.
For G69A A91C U125A the value was -6.56.
In the case of C70U U133G, the “polymerase ribozyme fitness (log ratio)” value is -1.12.
Take U112G C123G: the “polymerase ribozyme fitness (log ratio)” value was determined as 0.429.
For C3G C11A C12A the value was -3.85.
For G61C C124A the value was -0.457; for A27U U133C, -2.05.
With U55C G63U, the “polymerase ribozyme fitness (log ratio)” value is -1.09.
Consider C85A G113U, for which the “polymerase ribozyme fitness (log ratio)” value was -3.47.
With C70A G117A, the “polymerase ribozyme fitness (log ratio)” value was -3.29.
As to U21A C28U A37G G61U, the “polymerase ribozyme fitness (log ratio)” value was -4.5.
Consider C28U C40A, for which the “polymerase ribozyme fitness (log ratio)” value is -2.12.
For G36U C73U C114G C115G A119C G127U the value was -6.83; for A5C, -0.52.
With U21A C72G G77C C85A, the “polymerase ribozyme fitness (log ratio)” value is -3.48.
For C102A G128C U132G G135U the value was -3.41; for C3U C94G C114A U125A, -4.28.
Under G42A C49U U112C stands -0.387; under C56A G77C C98U G128A, -3.89.
As to G52U C79G A83G A121G U132A, the “polymerase ribozyme fitness (log ratio)” value came to 0.919.
Under A5U C72U G113U G120U U130C stands -4.48; under C72U A121C, 1.6; under C12A A26C C56U G69A C85A, -7.09.
Under C88A U116A stands -3.6; under A46C C72U, -1.13; under A43U U54A A66U U112A, -3.74.
For C40U G45C C49U G63U A83U C124G the value was -6.14; for A27U C40U C76G, -4.54.
For the variant A27C A46C C56G, the “polymerase ribozyme fitness (log ratio)” value was -4.61.
For C79G the value was -1.54; for C8G C72U A90C A91U A95G, -1.1.
Take G39A C62U A75U A83C U87C: the “polymerase ribozyme fitness (log ratio)” value is -1.16.
On to C72U U81A A91U A118U, for which the “polymerase ribozyme fitness (log ratio)” value was -3.42.
For C15A U129A the value was -3.18.
On to G69U A74C C104U, for which the “polymerase ribozyme fitness (log ratio)” value stood at 0.0316.
Under G45A A68G U112A stands -4.04; under C3G G69U A90U G93A U112C, -1.26; under A43U U55A C70G U112A G113A, -3.91.
Under C12G C73A stands 0.691; under G52A C70U C104A C124G, -3.65; under A74U A105C, -3.15.
For A43C G61U C82U C104G C123A the value was -7.32.
As to A24G G48A, the “polymerase ribozyme fitness (log ratio)” value is -1.73.
Turning to C11A G39U, the “polymerase ribozyme fitness (log ratio)” value was -1.81.
For C12U U112A the value was 1.23.
With G44A G122A G127C, the “polymerase ribozyme fitness (log ratio)” value is -2.85.
On to G36U C80U C85U C98U C102A A103U A105C U106G C115G, for which the “polymerase ribozyme fitness (log ratio)” value is -5.37.
For the variant G63A A83C C102U G113U, the “polymerase ribozyme fitness (log ratio)” value is -7.43.
